Results reported in the supplement of paper PMC5998384.

Tests used:
[1] = tested on: HeLa Kyoto; assay: thermal stability score vs G1/S (z-score of summed log2 fold changes over temperatures); higher = more thermally stable than in G1/S
[2] = tested on: HeLa Kyoto; assay: solubility change mitosis vs G1/S (difference of NP-40 vs SDS log2 ratios) (log2 ratio difference); higher = more soluble in mitosis
[3] = tested on: HeLa Kyoto; assay: melting temperature (median over replicates), in situ; higher = more thermally stable
[4] = tested on: HeLa Kyoto; assay: solubility in G1/S (NP-40 vs SDS abundance) (log2 ratio); higher = more soluble; details: cell cycle stage: G1/S
[5] = cell cycle stage: early G1 (4.5 h after nocodazole release)
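For melting temperature (median over replicates), in situ in this document: HeLa Kyoto cells synchronized by double thymidine or nocodazole block, proteins quantified by TMT10plex mass spectrometry, three independent biological replicates.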
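For solubility change mitosis vs G1/S (difference of NP-40 vs SDS log2 ratios) in this document: synchronized HeLa Kyoto cells (double thymidine block for G1/S, nocodazole release for mitosis), protein amounts in NP-40 versus SDS lysates quantified by mass spectrometry, three biological replicates.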
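For solubility in G1/S (NP-40 vs SDS abundance) in this document: HeLa Kyoto cells arrested at G1/S by double thymidine block, proteins quantified by TMT10plex mass spectrometry in mild NP-40 versus SDS extracts, three biological replicates.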
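For thermal stability score vs G1/S (z-score of summed log2 fold changes over temperatures) in this document: synchronized HeLa Kyoto cells, proteins quantified by TMT10plex mass spectrometry, three biological replicates, mitosis taken 0.5 h after nocodazole release, G1/S directly after double thymidine block.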

Q: “MAFLRSMWGVLSALGRSGAELCTGCGSRLRSPFSFVYLPRWFSSVLASCPKKPVSSYLRFSKEQLPIFKAQNPDAKTTELIRRIAQRWRELPDSKKKIYQDAYRAEWQVYKEEISRFKEQLTPSQIMSLEKEIMDKHLKRKAMTKKKELTLLGKPKRPRSAYNVYVAERFQEAKGDSPQEKLKTVKENWKNLSDSEKELYIQHAKEDETRYHNEMKSWEEQMIEVGRKDLLRRTIKKQRKYGAEEC [TFAM]” was tested. Which thermal stability score [1, 5] did it give?
A: -1.96

Q: And the thermal stability score ([1]; cell cycle stage: mitosis)?
A: -1.16

Q: What about the “solubility change mitosis (log2)” value [2] of the same sequence?
A: 0.546

Q: What about the melting temperature ([3]; cell cycle stage: G1/S) of the same sequence?
A: 53.1 °C

Q: What about the melting temperature ([3]; cell cycle stage: mitosis) of the same sequence?
A: 53 °C

Q: And the “solubility in G1/S (log2)” value [4]?
A: 0.578

Q: For “MAFRQALQLAACGLAGGSAAVLFSAVAVGKPRAGGDAEPRPAEPPAWAGGARPGPGVWDPNWDRREPLSLINVRKRNVESGEEELASKLDHYKAKATRHIFLIRHSQYHVDGSLEKDRTLTPLGREQAELTGLRLASLGLKFNKIVHSSMTRAIETTDIISRHLPGVCKVSTDLLREGAPIEPDPPVSHWKPEAVQYYEDGARIEAAFRNYIHRADARQEEDSYEIFICHANVIRYIVCRALQFPPEGWLRLSLNNGSITHLVIRPNGRVALRTLGDTGFMPPDKITRS [PGAM5]”, which thermal stability score [1, 5] is on record?
A: 1.94

Q: What about the thermal stability score ([1]; cell cycle stage: mitosis) of the same sequence?
A: -3.72

Q: What about the “solubility change mitosis (log2)” value [2] of the same sequence?
A: 0.121

Q: What about the melting temperature ([3]; cell cycle stage: G1/S) of the same sequence?
A: 52.8 °C

Q: And the melting temperature ([3]; cell cycle stage: mitosis)?
A: 52.2 °C

Q: What about the “solubility in G1/S (log2)” value [4] of the same sequence?
A: -0.0731

Q: Which results are given for “MAFVTRQFMRSVSSSSTASASAKKIIVKHVTVIGGGLMGAGIAQVAAATGHTVVLVDQTEDILAKSKKGIEESLRKVAKKKFAENLKAGDEFVEKTLSTIATSTDAASVVHSTDLVVEAIVENLKVKNELFKRLDKFAAEHTIFASNTSSLQITSIANATTRQDRFAGLHFFNPVPVMKLVEVIKTPMTSQKTFESLVDFSKALGKHPVSCKDTPGFIVNRLLVPYLMEAIRLYERGDASKEDIDTAMKLGAGYPMGPFELLDYVGLDTTKFIVDGWHEMDAENPLHQPSPSLNKLVAENKFGKKTGEGFYKYK [HADH]”?
A: thermal stability score [1, 5]: -2.07; thermal stability score ([1]; cell cycle stage: mitosis): -1.2; solubility change mitosis (log2) [2]: 0.00527; melting temperature ([3]; cell cycle stage: G1/S): 53.4 °C; melting temperature ([3]; cell cycle stage: mitosis): 53.7 °C; solubility in G1/S (log2) [4]: 0.267

Q: How did the thermal stability score [1, 5] turn out when “MAGAAAESGRELWTFAGSRDPSAPRLAYGYGPGSLRELRAREFSRLAGTVYLDHAGATLFSQSQLESFTSDLMENTYGNPHSQNISSKLTHDTVEQVRYRILAHFHTTAEDYTVIFTAGSTAALKLVAEAFPWVSQGPESSGSRFCYLTDSHTSVVGMRNVTMAINVISTPVRPEDLWSAEERSASASNPDCQLPHLFCYPAQSNFSGVRYPLSWIEEVKSGRLHPVSTPGKWFVLLDAASYVSTSPLDLSAHQADFVPISFYKIFGFPTGLGALLVHNRAAPLLRKTYFGGGTASAYLAGEDFYIPRQSVAQRFEDGTISFLDVIALKHGFDTLERLTGGMENIKQHTFTLAQYTYVALSSLQYPNGAPVVRIYSDSEFSSPEVQGPIINFNVLDDKGNIIGYSQVDKMASLYNIHLRTGCFCNTGACQRHLGISNEMVRKHFQAGHVCGDNMDLIDGQPTGSVRISFGYMSTLDDVQAFLRFIIDTRLHSSGDWPVPQAHADTGETGAPSADSQADVIPAVMGRRSLSPQEDALTGSRVWNNSSTVNAVPVAPPVCDVARTQPTPSEKAAGVLEGALGPHVVTNLYLYPIKSCAAFEVTRWPVGNQGLLYDRSWMVVNHNGVCLSQKQEPRLCLIQPFIDLRQRIMVIKAKGMEPIEVPLEENSERTQIRQSRVCADRVSTYDCGEKISSWLSTFFGRPCHLIKQSSNSQRNAKKKHGKDQLPGTMATLSLVNEAQYLLINTSSILELHRQLNTSDENGKEELFSLKDLSLRFRANIIINGKRAFEEEKWDEISIGSLRFQVLGPCHRCQMICIDQQTGQRNQHVFQKLSESRETKVNFGMYLMHASLDLSSPCFLSVGSQVLPVLKENVEGHDLPASEKHQDVTS [MOCOS]” was run?
A: -1.28

Q: What about the thermal stability score ([1]; cell cycle stage: mitosis) of the same sequence?
A: -1.96

Q: And the “solubility change mitosis (log2)” value [2]?
A: -0.13

Q: And the melting temperature ([3]; cell cycle stage: G1/S)?
A: 53.3 °C

Q: And the melting temperature ([3]; cell cycle stage: mitosis)?
A: 53.6 °C

Q: And the “solubility in G1/S (log2)” value [4]?
A: -0.123

Q: With “MAGAATQASLESAPRIMRLVAECSRSRARAGELWLPHGTVATPVFMPVGTQATMKGITTEQLDALGCRICLGNTYHLGLRPGPELIQKANGLHGFMNWPHNLLTDSGGFQMVSLVSLSEVTEEGVRFRSPYDGNETLLSPEKSVQIQNALGSDIIMQLDDVVSSTVTGPRVEEAMYRSIRWLDRCIAAHQRPDKQNLFAIIQGGLDADLRATCLEEMTKRDVPGFAIGGLSGGESKSQFWRMVALSTSRLPKDKPRYLMGVGYATDLVVCVALGCDMFDCVFPTRTARFGSALVPTGNLQLRKKVFEKDFGPIDPECTCPTCQKHSRAFLHALLHSDNTAALHHLTVHNIAYQLQLMSAVRTSIVEKRFPDFVRDFMGAMYGDPTLCPTWATDALASVGITLG [QTRT1]” as the sequence, how does the thermal stability score [1, 5] read?
A: 1.96

Q: And the thermal stability score ([1]; cell cycle stage: mitosis)?
A: 0.0564

Q: What about the “solubility change mitosis (log2)” value [2] of the same sequence?
A: -0.0923

Q: What about the melting temperature ([3]; cell cycle stage: G1/S) of the same sequence?
A: 55.6 °C

Q: What about the melting temperature ([3]; cell cycle stage: mitosis) of the same sequence?
A: 54.9 °C

Q: What about the “solubility in G1/S (log2)” value [4] of the same sequence?
A: 0.174

Q: With “MAGAGGGNDIQWCFSQVKGAVDDDVAEADIISTVEFNHSGELLATGDKGGRVVIFQQEQENKIQSHSRGEYNVYSTFQSHEPEFDYLKSLEIEEKINKIRWLPQKNAAQFLLSTNDKTIKLWKISERDKRPEGYNLKEEDGRYRDPTTVTTLRVPVFRPMDLMVEASPRRIFANAHTYHINSISINSDYETYLSADDLRINLWHLEITDRSFNIVDIKPANMEELTEVITAAEFHPNSCNTFVYSSSKGTIRLCDMRASALCDRHSKLFEEPEDPSNRSFFSEIISSISDVKFSHSGRYMMTRDYLSVKIWDLNMENRPVETYQVHEYLRSKLCSLYENDCIFDKFECCWNGSDSVVMTGSYNNFFRMFDRNTKRDITLEASRENNKPRTVLKPRKVCASGKRKKDEISVDSLDFNKKILHTAWHPKENIIAVATTNNLYIFQDKVN [PPP2R2A]” as the sequence, how does the thermal stability score [1, 5] read?
A: -0.543

Q: What about the thermal stability score ([1]; cell cycle stage: mitosis) of the same sequence?
A: -3.42

Q: What about the “solubility change mitosis (log2)” value [2] of the same sequence?
A: -0.194

Q: And the melting temperature ([3]; cell cycle stage: G1/S)?
A: 54.7 °C

Q: And the melting temperature ([3]; cell cycle stage: mitosis)?
A: 54.2 °C

Q: What about the “solubility in G1/S (log2)” value [4] of the same sequence?
A: -0.0929

Q: Which thermal stability score [1, 5] does the source give for “MAGAIASRMSFSSLKRKQPKTFTVRIVTMDAEMEFNCEMKWKGKDLFDLVCRTLGLRETWFFGLQYTIKDTVAWLKMDKKVLDHDVSKEEPVTFHFLAKFYPENAEEELVQEITQHLFFLQVKKQILDEKIYCPPEASVLLASYAVQAKYGDYDPSVHKRGFLAQEELLPKRVINLYQMTPEMWEERITAWYAEHRGRARDEAEMEYLKIAQDLEMYGVNYFAIRNKKGTELLLGVDALGLHIYDPENRLTPKISFPWNEIRNISYSDKEFTIKPLDKKIDVFKFNSSKLRVNKLILQLCIGNHDLFMRRRKADSLEVQQMKAQAREEKARKQMERQRLAREKQMREEAERTRDELERRLLQMKEEATMANEALMRSEETADLLAEKAQITEEEAKLLAQKAAEAEQEMQRIKATAIRTEEEKRLMEQKVLEAEVLALKMAEESERRAKEADQLKQDLQEAREAERRAKQKLLEIATKPTYPPMNPIPAPLPPDIPSFNLIGDSLSFDFKDTDMKRLSMEIEKEKVEYMEKSKHLQEQLNELKTEIEALKLKERETALDILHNENSDRGGSSKHNTIKKLTLQSAKSRVAFFEEL [NF2]” here?
A: 0.0456

Q: And the thermal stability score ([1]; cell cycle stage: mitosis)?
A: 0.294

Q: What about the “solubility change mitosis (log2)” value [2] of the same sequence?
A: -0.0393

Q: And the melting temperature ([3]; cell cycle stage: G1/S)?
A: 51.6 °C

Q: And the melting temperature ([3]; cell cycle stage: mitosis)?
A: 50.7 °C

Q: And the “solubility in G1/S (log2)” value [4]?
A: -0.161
